Source: US20040265965
Values joined by “and” are separate entries in the source; they are usually repeats but may differ in a detail not shown here. Identical values can stand only once.

Target: MBP-C125Swe (maltose binding protein fused to the C-terminal 125 amino acids of the Swedish variant of APP), P05067
Sequence (P05067 whole entry, looked up, change not shown, the tested form may be a part): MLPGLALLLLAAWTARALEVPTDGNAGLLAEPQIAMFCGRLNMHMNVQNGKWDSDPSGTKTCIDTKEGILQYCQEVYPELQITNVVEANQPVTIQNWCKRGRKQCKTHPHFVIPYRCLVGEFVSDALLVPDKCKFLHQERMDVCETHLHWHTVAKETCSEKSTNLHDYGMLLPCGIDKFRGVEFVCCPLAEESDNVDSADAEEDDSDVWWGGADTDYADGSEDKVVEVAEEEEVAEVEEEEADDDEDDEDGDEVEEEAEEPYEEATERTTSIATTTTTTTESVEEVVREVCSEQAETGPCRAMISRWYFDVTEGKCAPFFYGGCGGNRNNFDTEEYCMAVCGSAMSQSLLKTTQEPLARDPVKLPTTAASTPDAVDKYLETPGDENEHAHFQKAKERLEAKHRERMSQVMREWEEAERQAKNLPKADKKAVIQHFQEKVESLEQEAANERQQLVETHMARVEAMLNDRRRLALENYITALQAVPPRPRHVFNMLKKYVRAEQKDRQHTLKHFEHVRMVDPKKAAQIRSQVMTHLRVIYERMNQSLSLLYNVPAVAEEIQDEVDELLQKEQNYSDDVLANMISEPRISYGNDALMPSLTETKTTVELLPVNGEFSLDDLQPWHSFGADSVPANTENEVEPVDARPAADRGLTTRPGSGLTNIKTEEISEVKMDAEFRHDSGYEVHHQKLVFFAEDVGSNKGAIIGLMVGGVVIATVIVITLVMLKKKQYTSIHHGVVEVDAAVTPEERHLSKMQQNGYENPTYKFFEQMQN

B1: Δ2,3-452H soluble BACE (S174I, N223A, histidine tag), baculovirus/Sf9 (protein)
chain: TQHGIRLPLRSGLGGAPLGLRLPRETDEEPEEPGRRGSFVEMVDNLRGKSGQGYYVEMTVGSPPQTLNILVDTGSSNFAVGAAPHPFLHRYYQRQLSSTYRDLRKGVYVPYTQGKWEGELGTDLVSIPHGPNVTVRANIAAITESDKFFINGINWEGILGLAYAEIARPDDSLEPFFDSLVKQTHVPNLFSLQLCGAGFPLAQSEVLASVGGSMIIGGIDHSLYTGSLWYTPIRREWYYEVIIVRVEINGQDLKMDCKEYNYDKSIVDSGTTNLRLPKKVFEAAVKSIKAASSTEKFPDGFWLGEQLVCWQAGTTPWNIFPVISLYLMGEVTNQSFRITILPQQYLRPVEDVATSQDDCYKFAISQSSTGTVMGAVIMEGFYVVFDRARKRIGFAVSACHVHDEFRTAAVEGPFVTLDMEDCGYNIPQTDE
For B1, the Enzyme activity was “good activity was obtained for all samples tested”.

B2: Δ2,3-452Flag soluble BACE (S174I, N223A) (protein)
chain: TQHGIRLPLRSGLGGAPLGLRLPRETDEEPEEPGRRGSFVEMVDNLRGKSGQGYYVEMTVGSPPQTLNILVDTGSSNFAVGAAPHPFLHRYYQRQLSSTYRDLRKGVYVPYTQGKWEGELGTDLVSIPHGPNVTVRANIAAITESDKFFINGINWEGILGLAYAEIARPDDSLEPFFDSLVKQTHVPNLFSLQLCGAGFPLAQSEVLASVGGSMIIGGIDHSLYTGSLWYTPIRREWYYEVIIVRVEINGQDLKMDCKEYNYDKSIVDSGTTNLRLPKKVFEAAVKSIKAASSTEKFPDGFWLGEQLVCWQAGTTPWNIFPVISLYLMGEVTNQSFRITILPQQYLRPVEDVATSQDDCYKFAISQSSTGTVMGAVIMEGFYVVFDRARKRIGFAVSACHVHDEFRTAAVEGPFVTLDMEDCGYNIPQTD
With B2 the Activity (pM/h/ng enz) was 15800 pM/h/ng enz and 15700 pM/h/ng enz, the Cleavage Product (pM) was 109 pM and 108 pM and the “Substrate Conversion (%)” value was 5.19% and 5.16%. For the same protein, the specific activity was “all three proteins (452 Flag, Δ3-452Flag and Δ2,3-452Flag) had similar specific activities”.

B3: 452Flag soluble BACE (membrane truncated BACE with C-terminal Flag epitope tag, fully glycosylated) (protein)
chain: TQHGIRLPLRSGLGGAPLGLRLPRETDEEPEEPGRRGSFVEMVDNLRGKSGQGYYVEMTVGSPPQTLNILVDTGSSNFAVGAAPHPFLHRYYQRQLSSTYRDLRKGVYVPYTQGKWEGELGTDLVSIPHGPNVTVRANIAAITESDKFFINGSNWEGILGLAYAEIARPDDSLEPFFDSLVKQTHVPNLFSLQLCGAGFPLNQSEVLASVGGSMIIGGIDHSLYTGSLWYTPIRREWYYEVIIVRVEINGQDLKMDCKEYNYDKSIVDSGTTNLRLPKKVFEAAVKSIKAASSTEKFPDGFWLGEQLVCWQAGTTPWNIFPVISLYLMGEVTNQSFRITILPQQYLRPVEDVATSQDDCYKFAISQSSTGTVMGAVIMEGFYVVFDRARKRIGFAVSACHVHDEFRTAAVEGPFVTLDMEDCGYNIPQTD
For B3, the Activity (pM/h/ng enz) was 14300 pM/h/ng enz and 15200 pM/h/ng enz, the Cleavage Product (pM) was 85 pM and 90 pM and the “Substrate Conversion (%)” value was 4.05% and 4.30%. For the same protein, the specific activity was “all three proteins (452 Flag, Δ3-452Flag and Δ2,3-452Flag) had similar specific activities”.

B4: Δ3-452Flag soluble BACE (N223A) (protein)
chain: TQHGIRLPLRSGLGGAPLGLRLPRETDEEPEEPGRRGSFVEMVDNLRGKSGQGYYVEMTVGSPPQTLNILVDTGSSNFAVGAAPHPFLHRYYQRQLSSTYRDLRKGVYVPYTQGKWEGELGTDLVSIPHGPNVTVRANIAAITESDKFFINGSNWEGILGLAYAEIARPDDSLEPFFDSLVKQTHVPNLFSLQLCGAGFPLAQSEVLASVGGSMIIGGIDHSLYTGSLWYTPIRREWYYEVIIVRVEINGQDLKMDCKEYNYDKSIVDSGTTNLRLPKKVFEAAVKSIKAASSTEKFPDGFWLGEQLVCWQAGTTPWNIFPVISLYLMGEVTNQSFRITILPQQYLRPVEDVATSQDDCYKFAISQSSTGTVMGAVIMEGFYVVFDRARKRIGFAVSACHVHDEFRTAAVEGPFVTLDMEDCGYNIPQTD
For B4, the Activity (pM/h/ng enz) was 19100 pM/h/ng enz and 20200 pM/h/ng enz, the Cleavage Product (pM) was 126 pM and 119 pM and the “Substrate Conversion (%)” value was 5.68% and 6.01%. The specific activity was “all three proteins (452 Flag, Δ3-452Flag and Δ2,3-452Flag) had similar specific activities”.

B5: 452H,NINL soluble BACE (R42L43P44R45 changed to NINL, histidine tag), baculovirus/Sf9 (protein)
chain: NINLETDEEPEEPGRRGSFVEMVDNLRGKSGQGYYVEMTVGSPPQTLNILVDTGSSNFAVGAAPHPFLHRYYQRQLSSTYRDLRKGVYVPYTQGKWEGELGTDLVSIPHGPNVTVRANIAAITESDKFFINGSNWEGILGLAYAEIARPDDSLEPFFDSLVKQTHVPNLFSLQLCGAGFPLNQSEVLASVGGSMIIGGIDHSLYTGSLWYTPIRREWYYEVIIVRVEINGQDLKMDCKEYNYDKSIVDSGTTNLRLPKKVFEAAVKSIKAASSTEKFPDGFWLGEQLVCWQAGTTPWNIFPVISLYLMGEVTNQSFRITILPQQYLRPVEDVATSQDDCYKFAISQSSTGTVMGAVIMEGFYVVFDRARKRIGFAVSACHVHDEFRTAAVEGPFVTLDMEDCGYNIPQTDE
For B5, the Enzyme activity was “good activity was obtained for all samples tested”.

B6: Δ2,3-452H,NINL soluble BACE (S174I, N223A, R42L43P44R45 changed to NINL, histidine tag), baculovirus/Sf9 (protein)
chain: NINLETDEEPEEPGRRGSFVEMVDNLRGKSGQGYYVEMTVGSPPQTLNILVDTGSSNFAVGAAPHPFLHRYYQRQLSSTYRDLRKGVYVPYTQGKWEGELGTDLVSIPHGPNVTVRANIAAITESDKFFINGINWEGILGLAYAEIARPDDSLEPFFDSLVKQTHVPNLFSLQLCGAGFPLAQSEVLASVGGSMIIGGIDHSLYTGSLWYTPIRREWYYEVIIVRVEINGQDLKMDCKEYNYDKSIVDSGTTNLRLPKKVFEAAVKSIKAASSTEKFPDGFWLGEQLVCWQAGTTPWNIFPVISLYLMGEVTNQSFRITILPQQYLRPVEDVATSQDDCYKFAISQSSTGTVMGAVIMEGFYVVFDRARKRIGFAVSACHVHDEFRTAAVEGPFVTLDMEDCGYNIPQTDE
B6 was tested, and the Enzyme activity was “good activity was obtained for all samples tested”.
